Test results published in paper PMC8184503 (iScience, 2021).
Primed or numbered codes have the meaning given here. Where no end group is shown, it is not given here. FITC′ = fluorescein isothiocyanate

T1: His-tagged β-cat (ARM domain, aa 134-668) (UniProt P35222 134-668)
T1 sequence (looked up): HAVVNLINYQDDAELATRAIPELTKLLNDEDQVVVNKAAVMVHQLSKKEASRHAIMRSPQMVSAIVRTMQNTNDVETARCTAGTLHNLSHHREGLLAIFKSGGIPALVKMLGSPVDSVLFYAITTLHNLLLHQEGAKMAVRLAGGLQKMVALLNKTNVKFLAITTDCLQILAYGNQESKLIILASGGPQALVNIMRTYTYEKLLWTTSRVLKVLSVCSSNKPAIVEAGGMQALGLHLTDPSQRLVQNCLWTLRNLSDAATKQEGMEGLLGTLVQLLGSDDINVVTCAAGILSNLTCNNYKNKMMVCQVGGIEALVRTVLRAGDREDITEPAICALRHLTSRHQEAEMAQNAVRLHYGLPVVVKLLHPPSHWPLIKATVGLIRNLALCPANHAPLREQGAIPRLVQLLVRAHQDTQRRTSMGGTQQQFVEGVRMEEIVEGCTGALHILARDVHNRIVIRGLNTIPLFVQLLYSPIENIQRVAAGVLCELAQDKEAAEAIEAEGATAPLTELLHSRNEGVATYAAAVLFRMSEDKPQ


Target: T1, His-tagged β-cat (ARM domain, aa …)
Experiment: SPR

| IC50 | binding result | Binder |
| --- | --- | --- |
| 29 nM |  | GGGDDLGANDELISFKDEGEQEEKSSENSSAERDLADVKSSLVNE-{FITC′} [C-terminal FITC-labeled TCF4 peptide (aa 7-51)] |
|  | binds | GST-tagged TCF4 N-terminal domain (aa 1-55) (domain or fragment, UniProt Q9NQB0 1-55, looked up) MPQLNGGGGDDLGANDELISFKDEGEQEEKSSENSSAERDLADVKSSLVNESETN |
